Test results from patent publication WO2023191079A1 (dated 2023).

Target: T1, SpyCatcher-GOx (fusion protein with SpyCatcher and glucose oxidase in this order from the N-terminus)
T1 construct: also called SpyCatcher-fused glucose oxidase; SpyCatcher fusion GOx
Test: 5 uM each mixed, overnight at 4 C, SDS-PAGE

B1: scFv-ST (anti-CRP scFv antibody with SpyTag added) (scFv)
scFv: HMASQVQLQQSGAELVKPGASVKLSCTASGFNIKDYYMHWVKQRTEQGLEWIGRIDPEDGETKYAPKFQGKATITADTSSNTAYLQLSSLTSEDTAVYYCARGYYGSEAMDYWGQGTSLTVSSGGGGSGGGGSGGGGSTGSIVMTQSHKFMSTSVGDRVSITCKASQDVNTAVAWYQQKPGQSPKLLIYWASTRHTGVPDRFTGSGFGTDYTLTISSVQAEDLALYYCQQHYSTPWTFGGGTKLEIKRADAAPKLAAAGSGAHIVMVDAYKPTKAEQKLISEEDLNLGGGMRGSHHHHHH
binding result: binds
